Here are results for three molecules from patent publication US20250269045A1 (PHARMAESSENTIA, published 2025).

For experiment [1], the target named is T1, granulocyte colony-stimulating factor receptor (G-CSFR) (human, UniProt Q99062 25-621, limits assumed).
T1 construct: also called GCSF receptor; G-CSF receptor
T1 sequence (looked up): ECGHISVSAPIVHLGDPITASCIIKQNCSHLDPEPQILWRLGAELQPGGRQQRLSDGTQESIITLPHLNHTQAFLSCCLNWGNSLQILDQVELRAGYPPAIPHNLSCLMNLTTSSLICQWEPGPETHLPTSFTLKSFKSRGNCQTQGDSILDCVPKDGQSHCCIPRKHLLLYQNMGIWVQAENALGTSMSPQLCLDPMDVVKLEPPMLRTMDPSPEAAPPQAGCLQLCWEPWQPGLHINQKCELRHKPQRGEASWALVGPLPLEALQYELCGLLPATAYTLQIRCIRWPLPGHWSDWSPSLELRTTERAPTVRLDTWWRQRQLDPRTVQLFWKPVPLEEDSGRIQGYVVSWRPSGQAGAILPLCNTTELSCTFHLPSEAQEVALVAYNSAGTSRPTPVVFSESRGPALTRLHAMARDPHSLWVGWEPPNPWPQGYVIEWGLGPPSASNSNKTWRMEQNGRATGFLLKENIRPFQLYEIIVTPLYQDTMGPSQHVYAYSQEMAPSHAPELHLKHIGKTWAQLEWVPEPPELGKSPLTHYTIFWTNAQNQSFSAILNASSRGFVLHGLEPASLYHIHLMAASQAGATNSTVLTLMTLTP
Nature of the experiment: SPR (Biacore CM5), G-CSFR immobilised, analyte in flow, 1:1 kinetic fit. The method, then:
(§1) In this example, G-CSFR (GCSF receptors) were immobilized onto the Sensor Chip CM5 (Biacore, trademarked) as the ligand. In each testing samples, Filgrastim RS (reference standard), MetHuG-CSF, and mPEG-MetHuG-CSF, as the analyte, were flowed through the ligand on CM5 chip respectively. The titration range of test sample analytes used in the assay was 40.5, 20.2, […], 10.1, 5.1, 2.5, 1.3 and 0.6 nM. Formulation buffers of testing samples were also tested as negative controls. The binding between the ligand and the analyte was monitored through SPR sensorgram. As slow-on and slow-off sensorgrams were observed, the kinetics fit model (“1:1 binding”) was used to obtain association constant (ka) and dissociation constant (kd), and KD was calculated by kd/ka.

The target in experiment [2] is T1, granulocyte colony-stimulating factor …. Nature of the experiment: SPR (Biacore CM5), G-CSFR immobilised; KD divided by KD of Filgrastim RS. The method, then:
as §1
(§2) In Table 6 below, KD values of three testing samples towards G-CSFR were determined by SPR and summarized in the unit of molar concentration (M). For the KD ratio, the KD value of each testing sample was normalized with KD of Filgrastim RS.
(In general: SPR reads the build-up and loss of mass on a sensor chip optically.)

The target is the same in experiment [3]. Nature of the experiment: SPR (Biacore CM5), G-CSFR immobilised, analyte in flow, 1:1 kinetic fit, KD = kd/ka. As to the method:
as §1

The target is the same in experiment [4]. As to the kind of experiment: SPR (Biacore CM5), G-CSFR immobilised; this sample is the reference itself. The method, then: as §1, §2

As a reminder, the koff is the rate constant with which the complex falls apart. Low readings indicate slow dissociation, high ones fast dissociation. As a reminder, the kon is the rate constant with which the complex forms. Higher therefore signals fast association. Broadly, the Kd is the free concentration of one partner at which half of the binding sites on the other are occupied at equilibrium, for simple one-to-one binding. Lower therefore signals a tighter complex.

B1: mPEG-MetHuG-CSF (ligand)
chain: MTPLGPASSLPQSFLLKCLEQVRKIQGDGAALQEKLCATYKLCHPEELVLLGHSLGIPWAPLSSCPSQALQLAGCLSQLHSGLFLYQGLLQALEGISPELGPTLDTLQLDVADFATTIWQQMEELGMAPALQPTQGAMPAFASAFQRRAGGVLVASHLQSFLEVSYRVLRHLAQP
modifications: branched mPEG (two arms, each about 19-23 KDa; 40K-mPEG-aldehyde) covalently attached by amine linkage to the N-terminal Met (residue 1)
notes: also called P2203
In experiment [1], B1 returned a koff of 0.000401 s⁻¹ and an on-rate (kon) of 408000 M⁻¹ s⁻¹. In addition, in experiment [2], the “KD ratio (normalised to Filgrastim RS)” value amounted to 1.65. In addition, binding in experiment [3] was characterised by a dissociation constant (Kd) of 0.982 nM.

B2: MetHuG-CSF (ligand)
chain: MTPLGPASSLPQSFLLKCLEQVRKIQGDGAALQEKLCATYKLCHPEELVLLGHSLGIPWAPLSSCPSQALQLAGCLSQLHSGLFLYQGLLQALEGISPELGPTLDTLQLDVADFATTIWQQMEELGMAPALQPTQGAMPAFASAFQRRAGGVLVASHLQSFLEVSYRVLRHLAQP
notes: 175 aa: the 174 aa human G-CSF plus an N-terminal Met; also called MetHuG-CSF intermediate; human G-CSF with additional N-terminal Met
In experiment [1], B2 displayed a koff of 0.000469 s⁻¹ and an on-rate constant (kon) of 657000 M⁻¹ s⁻¹. In addition, the “KD ratio (normalised to Filgrastim RS)” value in experiment [2] stood at 1.2. Also, binding in experiment [3] was characterised by a dissociation constant (Kd) of 0.713 nM.

B3: Filgrastim Reference Standard (ligand, human, UniProt P09919-2 31-204, looked up)
chain: TPLGPASSLPQSFLLKCLEQVRKIQGDGAALQEKLCATYKLCHPEELVLLGHSLGIPWAPLSSCPSQALQLAGCLSQLHSGLFLYQGLLQALEGISPELGPTLDTLQLDVADFATTIWQQMEELGMAPALQPTQGAMPAFASAFQRRAGGVLVASHLQSFLEVSYRVLRHLAQP
notes: also called Filgrastim RS
In experiment [1], B3 gave a koff of 0.000444 s⁻¹ and an on-rate constant (kon) of 747000 M⁻¹ s⁻¹. Further, the “KD ratio (normalised to Filgrastim RS)” value in experiment [4] is 1. For the same molecule, in experiment [3], binding was characterised by a dissociation constant (Kd) of 0.595 nM.
